Residue numbers refer to the chain shown, from its start. Numbers in names are those of the source.
B1: truncated form of human WT SETD2, FLAG-tagged (tSETD2-FLAG, aa1418–2564), Q9BYW2 H2514A (protein)
chain: DGELQDRKKVRVEVEQGETSVPPGSALVGPSCVMDDFRDPQRWKECAKQGKMPCYFDLIEENVYLTERKKNKSHRDIKRMQCECTPLSKDERAQGEIACGEDCLNRLLMIECSSRCPNGDYCSNRRFQRKQHADVEVILTEKKGWGLRAAKDLPSNTFVLEYCGEVLDHKEFKARVKEYARNKNIHYYFMALKNDEIIDATQKGNCSRFMNHSCEPNCETQKWTVNGQLRVGFFTTKLVPSGSELTFDYQFQRYGKEAQKCFCGSANCRGYLGGENRVSIRAAGGKMKKERSRKKDSVDGELEALMENGEGLSDKNQVLSLSRLMVRIETLEQKLTCLELIQNTHSQSCLKSFLERHGLSLLWIWMAELGDGRESNQKLQEEIIKTLEHLPIPTKNMLEESKVLPIIQRWSQTKTAVPPLSEGDGYSSENTSRAHTPLNTPDPSTKLSTEADTDTPKKLMFRRLKIISENSMDSAISDATSELEGKDGKEDLDQLENVPVEEEEELQSQQLLPQQLPECKVDSETNIEASKLPTSEPEADAEIEPKESNGTKLEEPINEETPSQDEEEGVSDVESERSQEQPDKTVDISDLATKLLDSWKDLKEVYRIPKKSQTEKENTTTERGRDAVGFRDQTPAPKTPNRSRERDPDKQTQNKEKRKRRSSLSPPSSAYERGTKRPDDRYDTPTSKKKVRIKDRNKLSTEERRKLFEQEVAQREAQKQQQQMQNLGMTSPLPYDSLGYNAPHHPFAGYPPGYPMQAYVDPSNPNAGKVLLPTPSMDPVCSPAPYDHAQPLVGHSTEPLSAPPPVPVVPHVAAPVEVSSSQYVAQSDGVVHQDSSVAVLPVPAPGPVQGQNYSVWDSNQQSVSVQQQYSPAQSQATIYYQGQTCPTVYGVTSPYSQTTPPIVQSYAQPSLQYIQGQQIFTAHPQGVVVQPAAAVTTIVAPGQPQPLQPSEMVVTNNLLDLPPPSPPKPKTIVLPPNWKTARDPEGKIYYYHVITRQTQWDPPTWESPGDDASLEHEAEMDLGTPTYDENPMKASKKPKTAEADTSSELAKKSKEVFRKEMSQFIVQCLNPYRKPDCKVGRITTTEDFKHLARKLTAGVMNKELKYCKNPEDLECNENVKHKTKEYIKKYMQKFGAVYKPKEDTELE
B2: truncated form of human WT SETD2, FLAG-tagged (tSETD2-FLAG, aa1418–2564), Q9BYW2 F2505A (protein)
chain: B1 chain with F1088A, A1097H
B3: truncated form of human WT SETD2, FLAG-tagged (tSETD2-FLAG, aa1418–2564), Q9BYW2 R2510H (protein)
chain: B1 chain with R1093H, A1097H
B4: truncated form of human WT SETD2, FLAG-tagged (tSETD2-FLAG, aa1418–2564), Q9BYW2 V2483A (protein)
chain: B1 chain with V1066A, A1097H

Target: RNA polymerase II, P24928
Assay: coimmunoprecipitation (anti-FLAG beads, Western blot quantification)
Settings: chain shown with the change; tSETD2-FLAG on anti-Flag beads incubated with HEK293 cell lysate; parent: est. 82; read off a plot

Binder	response (% of input bound)
B1	17
B2	12
B3	84
B4	76

Source: paper PMC8294582
